Data: publication doi:10.1101/2025.09.11.675134, “Biodistribution-Driven Discovery Identifies a Glycosidase-Cleavable Linker to Reprogram Radiotheranostics” (bioRxiv, 2025)
Like-named read-outs stand apart in the source and are kept apart here.

Experiments:
[1] = Ex vivo biodistribution of 86Y-labeled variants in AR42J tumor-bearing mice; conditions: athymic nude, mouse, iv, 1 ug, total radioactivity, mean; for tissue uptake at 1 h: 1 h post-injection; for tissue uptake at 4 h: 4 h post-injection; for tissue uptake at 24 h: 24 h post-injection
Protocol: To independently confirm these observations, ex vivo biodistribution studies were conducted using the same ^86Y-labeled compounds at matched timepoints (Fig. S16; Table S3). […]
For studies involving three variants (DOTA -TATE, DOTA-MVK(ε)-TATE, and DOTA-β-Gal-TATE), AR42J cells (5 × 10^6 cells per mouse) were subcutaneously inoculated into the right shoulder of the mice. Tumors were allowed to grow for 3 weeks, reaching a volume of 100 –200 mm³ before being used in subsequent experiments. For biodistribution or PET imaging studies, mice bearing subcutaneous AR42J tumors were administered 1.4 – 1.8 MBq (1 μg) of 111In-labeled DOTA-TATE variants or 2.7 – 4.9 MBq (1 μg) of 86Y-labeled DOTA-TATE variants via tail vein injection. Biodistribution studies with 111In-labeled DOTA -TATE variants were performed 1 hour post -injection (n = 3 per cohort), while studies with 86Y-labeled DOTA-TATE variants were conducted at 1, 4, and 24 hours post -injection (n = 3 per cohort). Mice were euthanized by CO2 asphyxiation, and 10 tissues, including tumors, were collected. All samples were weighed and counted on a gamma counter (2480 Wizard 3, Perkin Elmer Inc., Waltham, MA, USA). Results are presented as percentage of injected activity per gram (%IA/g) and mean values ± standard deviations. […]

[2] = PET/CT quantification of 86Y-labeled variants in AR42J xenograft mice; assay type: in vivo; conditions: athymic nude, mouse, in vivo, iv, total radioactivity, 86Y-labeled, PET/CT, AR42J xenograft mice, mean ± SD, n = 3; for SUV at 1 h: 1 h post-injection; for SUV at 4 h: 4 h post-injection; for SUV at 24 h: 24 h post-injection
Protocol: For studies involving three variants (DOTA -TATE, DOTA-MVK(ε)-TATE, and DOTA-β-Gal-TATE), AR42J cells (5 × 10^6 cells per mouse) were subcutaneously inoculated into the right shoulder of the mice. Tumors were allowed to grow for 3 weeks, reaching a volume of 100 –200 mm³ before being used in subsequent experiments. For biodistribution or PET imaging studies, mice bearing subcutaneous AR42J tumors were administered 1.4 – 1.8 MBq (1 μg) of 111In-labeled DOTA-TATE variants or 2.7 – 4.9 MBq (1 μg) of 86Y-labeled DOTA-TATE variants via […]
tail vein injection. […]
PET imaging to assess the uptake of three 86Y-labeled DOTA-TATE variants (2.7 – 4.9 MBq, 1 μg) in the kidney and tumor was performed at 1, 4, and 24 hours post-injection (n = 3 per cohort) in mice bearing AR42J tumors using the MRS*PET/CT 120 scanner (MR Solutions, Guildford, UK). PET/CT data acquisition was managed using Preclinical Scan software (version 4.2.4.0, MR Solutions). Mice were anesthetized with 2% isoflurane, and static PET sc ans were acquired over 10 min. CT scans were obtained for attenuation correction and anatomical co-registration.
PET data were reconstructed using three-dimensional ordered-subsets expectation maximization, and were subsequently normalized, decay - and dead-time–corrected prior to analysis. PET/CT images were analyzed using MIM software (version 7.2.7, MIM Software Inc., Beachwood, OH, USA), and the quantitative evaluation of the maximum standardized uptake (SUVmax) and the average standardized uptake values (SUVmean) in the kidney and tumor were also performed. […]

[3] = blood, i.v. 1 μg (2.7–4.9 MBq), ex vivo gamma counting, n = 3, read-out: Blood uptake
[4] = blood, ex vivo, n = 3, read-out: Blood uptake
[5] = femur, ex vivo, n = 3, read-out: Femur uptake
[6] = heart, ex vivo, n = 3, read-out: Heart uptake
[7] = intestine, ex vivo, n = 3, read-out: Intestine uptake
[8] = ex vivo, n = 3, read-out: Tumor uptake
[9] = kidney, ex vivo, n = 3, read-out: Kidney uptake
[10] = liver, ex vivo, n = 3, read-out: Liver uptake
[11] = lung, ex vivo, n = 3, read-out: Lung uptake
[12] = muscle, ex vivo, n = 3, read-out: Muscle uptake
[13] = spleen, ex vivo, n = 3, read-out: Spleen uptake
[14] = 2.7–4.9 MBq (1 μg), read-out: Kidney SUVmax

Row | SMILES | tissue uptake at 1 h [1, 3] | tissue uptake at 4 h [1, 4] | tissue uptake at 24 h [1, 4] | tissue uptake at 1 h [1, 5] | tissue uptake at 4 h [1, 5] | tissue uptake at 24 h [1, 5] | tissue uptake at 1 h [1, 6] | tissue uptake at 4 h [1, 6] | tissue uptake at 24 h [1, 6] | tissue uptake at 1 h [1, 7] | tissue uptake at 4 h [1, 7] | tissue uptake at 24 h [1, 7] | tissue uptake at 1 h [1, 8] | tissue uptake at 4 h [1, 8] | tissue uptake at 24 h [1, 8] | tissue uptake at 1 h [1, 9] | tissue uptake at 4 h [1, 9] | tissue uptake at 24 h [1, 9] | tissue uptake at 1 h [1, 10] | tissue uptake at 4 h [1, 10] | other results
1 | C[C@@H](O)[C@H](NC(=O)[C@@H]1CSSC[C@H](NC(=O)[C@@H](Cc2ccccc2)NC(=O)CN2CCN(CC(=O)O)CCN(CC(=O)O)CCN(CC(=O)O)CC2)C(=O)N[C@@H](Cc2ccc(O)cc2)C(=O)N[C@H](Cc2c[nH]c3ccccc23)C(=O)N[C@@H](CCCCN)C(=O)N[C@@H]([C@@H](C)O)C(=O)N1)C(=O)O [^86Y-DOTA-TATE, metal not drawn, reference compound] | 0.22 %ID/g | 0.14 %ID/g | 0.03 %ID/g | 0.47 %ID/g | 0.35 %ID/g | 0.2 %ID/g | 0.37 %ID/g | 0.25 %ID/g | 0.09 %ID/g | 0.37 %ID/g | 0.51 %ID/g | 0.05 %ID/g | 5.98 %ID/g | 4.83 %ID/g | 3.48 %ID/g | 9.29 %ID/g | 6.61 %ID/g | 3.74 %ID/g | 0.29 %ID/g | 0.25 %ID/g | tissue uptake at 24 h [1, 10]: 0.15 %ID/g; tissue uptake at 1 h [1, 11]: 0.83 %ID/g; tissue uptake at 4 h [1, 11]: 0.34 %ID/g; tissue uptake at 24 h [1, 11]: 0.13 %ID/g; tissue uptake at 1 h [1, 12]: 0.44 %ID/g; tissue uptake at 4 h [1, 12]: 0.38 %ID/g; tissue uptake at 24 h [1, 12]: 0.1 %ID/g; tissue uptake at 1 h [1, 13]: 0.4 %ID/g; tissue uptake at 4 h [1, 13]: 0.25 %ID/g; tissue uptake at 24 h [1, 13]: 0.15 %ID/g; SUV at 1 h [2, 14]: 0.95 ± 0.04 SUV; SUV at 1 h ([2]; read-out: Tumor SUVmax): 0.85 ± 0.14 SUV; SUV at 4 h ([2]; read-out: Kidney SUVmax): 0.62 ± 0.06 SUV; SUV at 24 h ([2]; read-out: Kidney SUVmax): 0.41 ± 0.02 SUV; SUV at 24 h ([2]; read-out: Tumor SUVmax): 0.55 ± 0.04 SUV
2 | C[C@@H](O)[C@H](NC(=O)[C@@H]1CSSC[C@H](NC(=O)[C@@H](Cc2ccccc2)NC(=O)CCCC(=O)Nc2cc(COC(=O)N(C)CCNC(=O)CN3CCN(CC(=O)O)CCN(CC(=O)O)CCN(CC(=O)O)CC3)ccc2O[C@@H]2O[C@H](CO)[C@H](O)[C@H](O)[C@H]2O)C(=O)N[C@@H](Cc2ccc(O)cc2)C(=O)N[C@H](Cc2c[nH]c3ccccc23)C(=O)N[C@@H](CCCCN)C(=O)N[C@@H]([C@@H](C)O)C(=O)N1)C(=O)O [^86Y-DOTA-β-Gal-TATE, metal not drawn] | 0.32 %ID/g | 0.23 %ID/g | 0.02 %ID/g | 0.97 %ID/g | 0.96 %ID/g | 1.01 %ID/g | 0.33 %ID/g | 0.26 %ID/g | 0.11 %ID/g | 0.49 %ID/g | 0.33 %ID/g | 0.1 %ID/g | 9.71 %ID/g | 9.16 %ID/g | 9.03 %ID/g | 3.94 %ID/g | 3.29 %ID/g | 0.76 %ID/g | 0.4 %ID/g | 0.35 %ID/g | tissue uptake at 24 h [1, 10]: 0.27 %ID/g; tissue uptake at 1 h [1, 11]: 0.72 %ID/g; tissue uptake at 4 h [1, 11]: 0.58 %ID/g; tissue uptake at 24 h [1, 11]: 0.15 %ID/g; tissue uptake at 1 h [1, 12]: 0.48 %ID/g; tissue uptake at 4 h [1, 12]: 0.25 %ID/g; tissue uptake at 24 h [1, 12]: 0.09 %ID/g; tissue uptake at 1 h [1, 13]: 0.32 %ID/g; tissue uptake at 4 h [1, 13]: 0.5 %ID/g; tissue uptake at 24 h [1, 13]: 0.12 %ID/g; SUV at 1 h [2, 14]: 0.54 ± 0.05 SUV; SUV at 1 h ([2]; read-out: Tumor SUVmax): 1.96 ± 0.26 SUV; SUV at 4 h ([2]; read-out: Kidney SUVmax): 0.4 ± 0.02 SUV; SUV at 4 h ([2]; read-out: Tumor SUVmax): 1.63 ± 0.09 SUV; SUV at 24 h ([2]; read-out: Kidney SUVmax): 0.14 ± 0.01 SUV; SUV at 24 h ([2]; read-out: Tumor SUVmax): 1.86 ± 0.25 SUV
